Measured values as given in FireProtDB (doi:10.1038/342296a0).

B1: Ribonuclease, P00648 (parent)
chain: MMKMEGIALKKRLSWISVCLLVLVSAAGMLFSTAAKTETSSHKAHTEAQVINTFDGVADYLQTYHKLPDNYITKSEAQALGWVASKGNLADVAPGKSIGGDIFSNREGKLPGKSGRTWREADINYTSGFRNSDRILYSSDWLIYKTTDHYQTFTKIR

Variants of: B1
Settings: Bacillus amyloliquefaciens; pH 6.3; 25 °C; Urea; Fluorescence; MES 19.3 mM; reversible: yes; structure 1BNI; whole UniProt chain shown

ddG of mutation (higher = less stable) [kcal/mol]: each site, then its substitutions
T53: A 2.53, D -0.11, E 0.27, G 1.34, N 1.27, Q 1.87, S 0.22
T73: A 2.11, E 0.05, G 1.58, N 1.29, Q 1.72, V 2.31
